Tested on: E. coli assay strain Km3
Assay: Liquid B-galactosidase assays of chlorsulfuron repressor hits (induction and repression)
Details: CsL4.2 hits; for IND = induction with 20 ppb CS (B-galactosidase) / REP = repression in absence of inducer (B-galactosidase): liquid B-galactosidase assay; for REP = repression in absence of inducer (B-galactosidase): no inducer; for F. IND = fold induction (IND/REP) (B-galactosidase): 20 ppb Cs vs no inducer
Method: In order to create new diversity for shuffling the top clone from CsL3 was subjected to error prone PCR mutagenesis using Mutazyme (Stratagene). The mutated PCR product encoding the CsR ligand binding domain was inserted into library expression vector pVER7334 as a Sac1 to Asc1 fragment, transformed into library strain Km3 and plated onto LB+40 ug/ml Kanamycin and 50 ug/ml Carbenecillin. Approximately 10,000 colonies were then replica plated onto M9 Xgal assay medium +/−20 ppb Cs. Putative hits were then re-arrayed and replica plated onto the same assay medium. Performance was gauged by the level of blue colony color after 24 hrs incubation on inducer (induction) and 72 hrs incubation without inducer (repression). The top hits were then subjected to liquid B-galactosidase assays for quantitative assessment (Table 21).
Seventh round library CsL4.2 was designed based on the best diversity from CsL3 and CsL3-MTZ library screens (Table 14). The library was assembled with oligonucleotides shown below in Table 22. The first and last primers were used as rescue primers. CsL4.2 included a C-terminal 6×His-tag extension to facilitate protein purification. The library was assembled and cloned into vector pVER7334 Sac1 to Asc1, transformed into library assay strain Km3 and plated onto LB+40 ug/m1 Kanamycin and 50 ug/ml carbenecillin. Approximately 8,000 colonies were re-arrayed into 384-well format and replica plated onto M9 Xgal assay medium +/−2 ppb Cs. Putative hits were re-arrayed in 96-well format onto the same media for re-testing. Confirmed hits were then tested for induction and repression aspects in liquid culture using B-galactosidase assays.
Mutagenesis reactions were transformed into E. coli assay strain Km3 and plated onto LB+50 ug/ml Carbenecillin. Colonies were then re-arrayed into 384 well format and replica plated onto M9 Xgal assay medium +/−5 ppb Chlorsulfuron. Putative hits were then re-arrayed and analyzed by B-galactosidase assays relative to the parent clones (FIG. 10).

| Molecule | IND = induction with 20 ppb CS (B-galactosidase) | REP = repression in absence of inducer (B-galactosidase) | F. IND = fold induction (IND/REP) (B-galactosidase) |
| --- | --- | --- | --- |
| CsL4.2-15: top CsR hit of library CsL4.2 (protein, Sulfonylurea responsive repressor) MARLDKSKVINSALELLNEVGIEGLTTRKLAQKLGVEQPTLYWHVKNKRALLDALAIEMHDRHQTHYLPLEGESWQDFLRNFAKSMRRALLSHRDGAKVSLGTRWTEQQYETAENMLAFLTQQGFSLENALYATDAVRVFTLGAVLLDQEQQVAKEERETPTTDSMPPLLRQAWELKVHQGAEPAFLFGLELIIAGLEKQLKRESGS | 4.0 | 0.2 |  |
| CsL4.2-22 (protein, Sulfonylurea responsive repressor) MARLDKSKVINSALELLNEVGIEGLTTRKLAQKLGVEQPTLYWHVKNKRALLDALAIEMHDRHQTHYLPLEGESWQDFLRNFAKSMRRALLSHRDGAKIALGTRWTEQQYETAENMLAFLTQQGFSLENALYATDAVRVFTLGAVLLDQEQQVAKEERETPTPDSMPPLLRQAWELKDHQGAEPAFLFGLELIIAGLEKQLKRESGSHHHHHH | 5.4 | 0.3 | 20.8 |
| CsL4.2-07 (protein, Sulfonylurea responsive repressor) MARLDKSKVINSALELLNEVGIEGLTTRKLAQKLGVEQPTLYWHVKNKRALLDALAIEMHDRHQTHYLPLEGESWQDYLRNFAKSMRCALLSHRDGAKIALGTRWTEQQYETAENMLAFLTQQGFSLENALYATDAVRVFTLGAVLLDQEQQVAKEERETPTPDSMPPLLRQAWELKVHQGAEPAFLFGLELIIAGLEKQLKRESGSHHHHHH | 6.5 | 0.3 | 18.9 |
| CsL4.2-16 (protein, Sulfonylurea responsive repressor) MARLDKSKVINSALELLNEVGIEGLTTRKLAQKLGVEQPTLYWHVKNKRALLDALAIEMMDRHQTHYLPLEGESWQDYLRNFAKSMRCALLSHRDGAKVSLGTRWTEQQYETAENMLAFLTQQGFSLENALYATDAVRVFTLGAVLLDQEGQVANEERETPTPDRMPPLLRQAWELKVHQGAEPAFLFGLELIIAGLEKQLKRESGSHHHHHH | 3.8 | 0.3 | 15.2 |
| CsL4.2-08 (protein, Sulfonylurea responsive repressor) MARLDKSKVINSALELLNEVGIEGLTTRKLAQKLGVEQPTLYWHVKNKRALLDALAIEMMDRHQTHYLPLEGESWQDFLRNFAKSMRRALLSHRDGAKVALGTRWTEQQYETAENMLAFLTQHGFSLENALYATDAVRVFTLGAVLLDQEQQVAKEERETPTPDSMPPLLRQAWELKVHQGAEPAFLFGLELIIAGLEKQLKRESGSHHQHHH | 10.7 | 0.7 |  |
| CsL4.2-24 (protein, Sulfonylurea responsive repressor) MARLDKSKVINSALELLNEVGIEGLTTRKLAQKLGVEQPTLYWHVKNKRALLDALAIEMHDRHQTHYLPLEGESWQDYLRNFAKSMRCALLSHRDGAKVALGTRWTEQQYETAENMLAFLTQQGFSLENALYATSAVRVFTLGAVLLDQEGQVANEERETPTPDSMPPLLRQAWELKVHQGAEPAFLFGLELIIAGLEKQLKRESGSHHHHHH | 5.4 | 0.4 | 14.3 |
| CsL4.2-21 (protein, Sulfonylurea responsive repressor) MARLDKSKVINSALELLNEVGIEGLTTRKLAQKLGVEQPTLYWHVKNKRALLDALAIEMMDRHGTHYLPLEGESWQDFLRNYAKSMRRALLSHRDGAKVALGTRWTEQQYETAENMLACLTQQGFSLENALYATSAVRVFTLGAVLLDQEQQVANEERETPTTDSMPPLLRQAWELKVHQGAEPAFLFGLELIIAGLEKQLKRESGSHHHHHH | 3.2 | 0.2 | 13.2 |
| CsL4.2-28 (protein, Sulfonylurea responsive repressor) MARLDKSKVINSALELLNEVGIEGLTTRKLAQKLGVEQPTLYWHVKNKRALLDALAIEMMDRHQTHYLPLEGESWQDYLRNFAKSMRCALLSHRDGAKVALGTRWTEQQYETAENMLAFLTQQGFSLENALYATSAVRVFTLGAVLLDQEQQVAKQERETPTPDSMPPLLRQAWELKVHQGAEPAFLFGLELIIAGLEKQLKRESGSHHHHHH | 5.3 | 0.5 | 11.3 |
| CsL4.2-30 (protein, Sulfonylurea responsive repressor) MARLDKSKVINSALELLNEVGIEGLTTRKLAQKLGVEQPTLYWHVKNKRALLDALAIEMHDRHQTHYLPLEGESWQDFLRNFAKSMRRALLSHRDGAKVALGTRWTEQQYETAENMLAFLTQQGFSLENALYATSAVRVFTLGAVLLDQEGQVANEERETPTPDSMPPLLRQAWELKVHQGAEPAFLFGLELIIAGLEKQLKRESGSHHHHHH | 4.9 | 0.5 | 10.8 |
| CsL4.2-26 (protein, Sulfonylurea responsive repressor) MARLDKSKVINSALELLNEVGIEGLTTRKLAQKLGVEQPTLYWHVKNKRALLDALAIEMHDRHQTHYLPLEGESWQDYLRNFAKSMRCALLSHRDGAKVSLGTRWTEQQYETAENMLAFLTQQGFSLENALYATSAVRVFTLGAVLLDQEQQVAKEERETPTPDRMPPLLRQAWELKVHQGAEPAFLFGLELIIAGLEKQLKRESGSHHHHHH | 3.1 | 0.3 | 10.6 |
| CsL4.2-23 (protein, Sulfonylurea responsive repressor) MARLDKSKVINSALELLNEVGIEGLTTRKLAQKLGVEQPTLYWHVKNKRALLDALAIEMMDRHQTHYLPLEGESWQDYLRNFAKSMRCALLSHRDGAKVALGTRWTEQQYETAENMLAFLTQQGFSLENALYATSAVRVFTLGAVLLDQEQQVAKEERETPTPDRMPPLLRQAWELKVHQGAEPAFLFGLELIIAGLEKQLKRESGSHHHHHH | 10.4 | 1.0 | 10.5 |
| CsL4.2-04 (protein, Sulfonylurea responsive repressor) MARLDKSKVINSALELLNEVGIEGLTTRKLAQKLGVEQPTLYWHVKNKRALLDALAIEMHDRHQTHYLPLEGESWQDFLRNFAKSMRCALLSHRDGAKVALGTRWTEQQYETAENMLAFLTQQGFSLENALYATDAVRVFTLGAVLLDQEQQVANEGRETPTTDSMPPLLRQAWELKEHQGAEPAFLFGLELIIAGLEKQLKRESGSHHHHHH | 4.3 | 0.4 | 10.2 |

— patent US20160152995A1, “METHODS AND COMPOSITIONS TO IMPROVE THE SPREAD OF CHEMICAL SIGNALS IN PLANTS” (PIONEER HI-BRED INTERNATIONAL, INC., priority 2013, published 2016)
